# Data reported in publication PMC3351170 (Nucleic Acids Research, 2012).
# Numbering of substitutions follows the chain as printed.
# B1: SATB1 ubiquitin-like domain (ULD), residues 71-172 (domain or fragment, mouse, UniProt Q60611 71-172, looked up)
# chain: GTMLPVFCVVEHYENAIEYDCKEEHAEFVLVRKDMLFNQLIEMALLSLGYSHSSAAQAKGLIQVGKWNPVPLSYVTDAPDATVADMLQDVYHVVTLKIQLHS
# B2: SATB1 EFH-AAA mutant, full length (natural protein, mouse, UniProt Q60611 1-764, looked up)
# chain: MDHLNEATQGKEHSEMSNNVSDPKGPPAKIARLEQNGSPLGRGRLGSTGGKMQGVPLKHSGHLMKTNLRKGTMLPVFCVVEHYENAIEYDCKEEHAAAVLVRKDMLFNQLIEMALLSLGYSHSSAAQAKGLIQVGKWNPVPLSYVTDAPDATVADMLQDVYAVVTLKIQLHSCPKLEDLPPEQWSHTTVRNALKDLLKDMNQSSLAKECPLSQSMISSIVNSTYYANVSAAKCQEFGRWYKHFKKTKDMMVEMDSLSELSQQGANHVNFGQQPVPGNTAEQPPSPAQLSHGSQPSVRTPLPNLHPGLVSTPISPQLVNQQLVMAQLLNQQYAVNRLLAQQSLNQQYLNHPPPVSRSMNKPLEQQVSTNTEVSSEIYQWVRDELKRAGISQAVFARVAFNRTQGLLSEILRKEEDPKTASQSLLVNLRAMQNFLQLPEAERDRIYQDERERSLNAASAMGPAPLLSTPPSRPPQVKTATLATERNGKPENNTMNINASIYDEIQQEMKRAKVSQALFAKVAATKSQGWLCELLRWKEDPSPENRTLWENLSMIRRFLSLPQPERDAIYEQESNAVHHHGDRPPHIIHVPAEQIQQQQQQQQQQQQQQQPPPPPPQPQPQPQAGPRLPPRQPTVASSAESDEENRQKTRPRTKISVEALGILQSFIQDVGLYPDEEAIQTLSAQLDLPKYTIIKFFQNQRYYLKHHGKLKDNSGLEVDVAEYKDEELLKDLEESVQDKNANTLFSVKLEEELSVEGSTDVNADLKD
# B3: SATB1 KWN-AAA mutant, full length (natural protein, mouse, UniProt Q60611 1-764, looked up)
# chain: B2 chain with A97E, A98F, K136A, W137A, N138A, A162H
# Key:
# SEC [1] = target: the molecule itself; assay: SEC
# SEC [2] = target: the molecule itself; assay: SEC; remark: listed apart in the source
# AUC = target: the molecule itself; assay: AUC
protein,measurement,setting,value
B1,stoichiometry N,SEC [1],4
B2,binding result,SEC [2],binds
B3,stoichiometry N,AUC,2
